The target of this test is APC3 (wild-type, untagged) (human, UniProt P30260-2 1-830). The experiment in a line: SEC. Background: SEC sorts molecules by how far they enter the pores of the column.

B1: APC16^C (Strep tag removed by TEV) (domain or fragment)
chain: not shown
On to B1, for which the binding result was “binds”.

The values above are taken from publication PMC4444369 (Journal of molecular biology, 2014).
